Patent publication US11492610B2, “Sample multiplexing for single-cell RNA sequencing” (California Institute of Technology, priority 2018, dated 2022)

System: mouse neural stem cells (NSCs)
Assay: 96-plex scRNA-seq perturbation experiment (96-sample growth factor screen)
Assay type: cell-based
Method: Neural stem cells for 96-sample growth factor screen were cultured according to the following protocol after previously described cell culture plate reached ˜80% confluence: Stock solutions (10×) were prepared in Neural Stem Cell Basal Medium for every factor and at every concentration used: EGF+bFGF at 200 ng/mL, 40 ng/mL, 8 ng/mL, 1.6 ng/mL; BMP4 (Peprotech) at 200 ng/mL, 40 ng/mL, 8 ng/mL, 0 ng/mL; Retinoic Acid (Sigma) at 10 μM, 2 μM, 0 μM; Scriptaid (Selleckchem)/Decitabine (Selleckchem) at 1 μM/5 μM, 0.2 μM/1 μM, 0 μM/0 μM; Heparin at 20 μg/mL+Penicillin-Streptomycin at 10%. 20 μL each of EGF/bFGF, BMP4, Retinoic acid or Scriptaid/Decitabine, and Heparin/Penicillin-Streptomycin were added to each well of a poly-L-ornithine and laminin coated 96-well plate for a total of 80 μL.
NSCs previously plated on 100 mm culture plates until ˜80% confluent were dissociated by incubation in 4 mL of ESGRO Complete Accutase (Millipore) for 2 minutes at 37° C. After incubation, the Accutase and NSCs were transferred to a 15 mL conical tube and centrifuged at room temperature for 2.5 minutes at 200×g. Supernatant was removed and the cell pellet was resuspended in 2 mL Neural Stem Cell Basal Medium. Centrifugation and medium replacement were repeated one more time and cell concentration was counted on the Countess II Automated Cell Counter. The cell suspension was then diluted with additional Neural Stem Cell Basal Medium to a concentration of 18.3 cells/μL. From this stock 120 μL was added to each well of the 96-well plate for a total of ˜2,200 cells/well. Supplemented media for every well in the 96-well plate was replaced every other day during the 5-day incubation.
Before NSC dissociation and fixation, 80 μL of ice-cold methanol was added to each well of twelve 8-well PCR strips on an ice block. After 5 days in culture, all media in the 96-well plate were removed and the cells washed three times with 150 μL of Neural Stem Cell Basal Medium. Any remaining media were removed and replaced with 20 μL of Accutase and incubated at 37° C. for 2 minutes with gentle pipetting to help break cell clumps. […]
Cells for the 96-sample perturbation experiment were prepared as described above. […] Sequencing libraries were prepared as described, with sample tag libraries sequenced on two lanes of Illumina MiSeq using MiSeq v3 150 cycle kits (26×98 bp reads), and cDNA libraries pooled and sequenced on Illumina HiSeq 4000 using two HiSeq 3000/4000 SBS 300 cycle kits (2×150 bp reads).
For the 96-sample perturbation experiment, the ScanPy Python package (version 1.0.4) was used to process the filtered genes×cells matrix produced by cellranger. […] The per-cell read counts were regressed out and the data scaled to unit variance. […]

B1: BMP4: bone morphogenic protein 4 (BMP4), Peprotech (protein, UniProt P12644 293-408, looked up)
Bone morphogenetic protein 4: SPKHHSQRARKKNKNCRRHSLYVDFSDVGWNDWIVAPPGYQAFYCHGDCPFPLADHLNSTNHAIVQTLVNSVNSSIPKACCVPTELSAISMLYLDEYDKVVLKNYQEMVVEGCGCR
cell proliferation / phenotype across the perturbation array (Example 2 analysis, FIG. 3E, 5A): high proliferation under low BMP4 conditions | effect on cell populations, PCA of relative cluster abundance × sample matrix (Example 2 analysis, FIG. 5B): graded effect | cell proliferation / phenotype across the perturbation array (Example 5 re-analysis (UMAP), FIG. 24, 27): high proliferation under low BMP4 conditions | effect on cell populations, PCA of relative cluster abundance × sample matrix (Example 5 re-analysis (UMAP), FIG. 24B): graded effect
